{"source": "paper doi:10.1101/2020.03.10.985069", "about": "(2020)", "binders": {"B1": {"name": "IL-10Rβ ectodomain (amino acids 20-220), biotinylated (receptor)", "chain": "MVPPPENVRMNSVNFKNILQWESPAFAKGNLTFTAQYLSYRIFQDKCMNTTLTECDFSSLSKYGDHTLRVRAEFADEHSDWVNITFCPVDDTIIGPPGMQVEVLADSLHMRFLAPKIENEYETWTMKNVYNSWTYNVQYWKNGTDEKFQITPQYDFEVLRNLEPWTTYCVQVRGFLPDRNKAGEWSEPVCEQTTHDETVPS", "modifications": "biotin on the biotin acceptor peptide (BirA ligase)"}}, "key": {"R5A11/IL-10Rα complex": {"biological_target": "R5A11/IL-10Rα complex (human (by the printed UniProt entry …, UniProt P22301 19-178; Q13651 22-235)", "assay": "SPR; pre-bound to IL-10Rα"}, "A11/IL-10Rα complex": {"biological_target": "A11/IL-10Rα complex (human (by the printed UniProt entry …, UniProt P22301 19-178; Q13651 22-235)", "assay": "SPR; pre-bound to IL-10Rα"}, "B11/IL-10Rα complex": {"biological_target": "B11/IL-10Rα complex (human (by the printed UniProt entry …, UniProt P22301 19-178; Q13651 22-235)", "assay": "SPR; pre-bound to IL-10Rα"}, "[1]": {"biological_target": "IL-10 variant A11, recombinant monomer (human (by the printed UniProt entry …, UniProt P22301 19-178))", "assay": "SPR"}, "[2]": {"biological_target": "high affinity IL-10 monomer R5A11M, recombinant (human (by the printed UniProt entry …, UniProt P22301 19-178))", "assay": "SPR"}, "[3]": {"biological_target": "IL-10 variant B11, recombinant monomer (human (by the printed UniProt entry …, UniProt P22301 19-178))", "assay": "SPR"}}, "data": [{"binder": "B1", "values": [{"measurement": "Kd", "setting": "R5A11/IL-10Rα complex", "value": 100, "unit": "nM"}, {"measurement": "Kd", "setting": "A11/IL-10Rα complex", "value": 23, "unit": "nM"}, {"measurement": "Kd", "setting": "B11/IL-10Rα complex", "value": 65, "unit": "nM"}, {"measurement": "Kd", "setting": "[1]", "value": 2400, "unit": "nM"}, {"measurement": "Kd", "setting": "[2]", "value": 8.9, "unit": "µM"}, {"measurement": "Kd", "setting": "[3]", "value": 9.4, "unit": "µM"}]}]}
